The source of these data is paper doi:10.1101/2023.04.03.535218, “Distributable, Metabolic PET Reporting of Tuberculosis” (bioRxiv, 2023).

Substrate in data set [1]: O=P(O)(O)OC[C@H]1O[C@H](O[C@H]2O[C@H](CO)[C@@H](O)[C@H](O)[C@H]2O)[C@H](O)[C@@H](O)[C@@H]1O
Kind of data set: continuous 1H NMR assay. Format: biochemical, Escherichia coli. The settings on record: 37 °C. From the text: continuous 1H NMR assay on OtsB

Substrate in data set [2]: O=P(O)(O)OC[C@H]1O[C@H](O[C@H]2O[C@H](CO)[C@@H](O)[C@H](O)[C@H]2O)[C@H](O)[C@@H](O)[C@@H]1O
In words: table note: endpoint HPLC; Methods: malachite green assay. Format: biochemical, Escherichia coli. The settings on record: method note of the table (HPLC, fixed Glc, 70 °C) does not fit this enzyme. From the text:
table note: endpoint HPLC; Methods: malachite green assay on OtsB^Sf

B1: OtsB (Escherichia coli K-12) (protein)
chain: MTEPLTETPELSAKYAWFFDLDGTLAEIKPHPDQVVVPDNILQGLQLLATASDGALALISGRSMVELDALAKPYRFPLAGVHGAERRDINGKTHIVHLPDAIARDISVQLHTVIAQYPGAELEAKGMAFALHYRQAPQHEDALMTLAQRITQIWPQMALQQGKCVVEIKPRGTSKGEAIAAFMQEAPFIGRTPVFLGDDLTDESGFAVVNRLGGMSVKIGTGATQASWRLAGVPDVWSWLEMITTALQQKRENNRSDDYESFSRSI
notes: expressed in E. coli
Usually Km stands for the substrate concentration at which the rate is half of its maximum. In general, kcat refers to the maximal rate divided by the concentration of active sites. Usually kcat/Km stands for the second-order rate constant that governs catalysis at low substrate concentration. For the protein B1, in data set [1], the Km is 3.6 ± 0.8 mM, the kcat came to 286 ± 34 s⁻¹ and the kcat/Km came out at 79000 M⁻¹ s⁻¹.

B2: OtsB^Sf (Escherichia coli K-12) (protein)
chain: B1 chain
notes: purified on Ni-NTA
For the protein B2, in data set [2], the Km was found to be 2.8 ± 0.7 mM, the kcat was determined as 740 ± 96 s⁻¹ and the kcat/Km came to 264000 M⁻¹ s⁻¹.
